The labels stand for the following.
B2: pRb (retinoblastoma gene product), endogenous in rat liver epithelial cell extracts (other)
chain: PPKAPRRTAAAEPPPPPPPPPEDDPAQDSDPEELPLIRLEFEKIEEPEFIALCQKLKVPDHVRERAWLTWEKVSSVDGILEGYIQKKKELWGICIFIAAVDLDEMPFTFTELQKSIETSVYKFFDLLKEIDTSTKVDNAVSRLLKKYNVLCALYSKLERTCGLIYLTQPSSGLSTEINSMLVLKVSWITFLLAKGEVVQMEDDLVISFQLMLCVLDYFIKLSPPALLREPYKTAATPINGSPRTPRRGQNRSARIAKQLESDTRTIEVLCKEHECNVDEVKNVYFKNFIPFISSLGIVSSNGLPELESLSKRYEEVYLKSKDLDARLFLDHDKTLQTDTIDSFETERTPRKSNPDEEANMVTPHTPVRTVMNTIQQLMVILNSASDQPSENLISYFSNCTVNPKENILKRVKDVGHIFKEKFASAVGQGCIDIGAQRYKLGVRLYYRVMESMLKSEEERLSIQNFSKLLNDNIFHMSLLACALEVVMATYSRSMLQNLDSGTDLSFPWILNVLNLKAFDFYKVIESFIKVEANLTREMIKHLERCEHRIMESLAWLSDSPLFDLIKQSKDGEGPDHLESACSLSLPLQSNHTAADMYLSPIRSPKKRTSTTRVNSAANTETQAASAFHTQKPLKSTSLSLFYKKVYRLAYLRLNTLCARLLSDHPELEHIIWTLFQHTLENEYELMKDRHLDQIMMCSMYGICKVKNIDLKFKIIVTAYKDLPHAAQETFKRVLIREEEFDSIIVFYNSVFMQRLKTNILQYASTRPPTLSPIPHIPRSPYKFSSSPLRIPGGNIYISPLKSPYKISEGLPTPTKMTPRSRILVSIGESFGTSEKFQKINQMVCNSDRVLKRSAEGGNPPKPLKKLRFDIEGSDEADGSKHLPAESKFQQKLAEMTSTRTRMQKQKLNDSMEISNKEEK

Assay [1] has as its target B2. The assay is described as follows: precipitation of pRb from whole cell lysates by amylose-purified BOG-MBP.
The target in assay [2] is maltose binding protein without BOG (UniProt P0AEX9 27-392 = MBP). The assay is described as follows: precipitation from whole cell lysates with amylose-purified protein.

B1: BOG-MBP chimeric protein (complete rBOG fused to the carboxy-terminal of maltose binding protein, pMAL-P2-BOG) (other, not shown: large carriers)
chain: MVSPTKAVIVPGNGGGDVATHGWYGWVRKGLEQIPGFQCLAKNMPDPITARESIWLPFMETELHCDEKTIIIGHSSGAIAAMRYAETHQVYALILVSAYTSDLGDENERASGYFSRPWQWEKIKANCPHIIQFGSTDDPFLPWKEQQEVADSWTPNCTNSLTVVTFRTQSSMN
notes: Any vector-encoded linker between MBP and BOG is not described; also called fusion protein BOG-MBP; chimeric BOG-MBP
In the case of B1, the binding result in assay [1] is “binds”.
For B2, the binding result in assay [2] is reported as “no binding”.

The record behind these values is patent US20040139485A1 (US Dept. of Health and Human Services, published 2004).
